Measurements as given in patent US20210401961A1.

Target: HB-EGF receptor (UniProt Q99075)
Assay: cell-based or functional assay

Sequence of UniProt Q99075 (Q99075 63-148 limits assumed): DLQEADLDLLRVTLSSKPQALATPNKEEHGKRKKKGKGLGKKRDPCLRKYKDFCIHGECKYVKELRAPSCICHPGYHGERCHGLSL

“CRM197-Alexa488 (from UniProt P00587 26-560)” showed a labelling of OV90 tumor cells with CRM197-Alexa488 after 24 hours (flow cytometry, 10 µg/mL) of 98.2%, a percentage of CRM197-Alexa488 uptake by OV90 tumor cells after 4 hours (flow cytometry, 10 µg/mL) of 82% and a percentage of OV90 tumor cells with CRM197-Alexa488 signal after 4 hours with trypan blue quenching (intracellular) of 72.7%. It also gave a percentage of OV90 tumor cells with CRM197-Alexa488 signal after 24 hours with trypan blue quenching (intracellular) of 97.6%.
